Reference: patent publication US20140087995A1 (published 2014)
Numbered stars: 1 amine (or outer) side, 2 acyl side, 3 side chain; on linkers, the order of the positions; unused ones are H or OH. Bridge positions count the residues as written; N and C are the ends. * marks the point of attachment. C20 diacid = O=C(O)CCCCCCCCCCCCCCCCCCC(=O)*; γGlu = O=C(O)[C@H](CCC(=O)[*:2])N[*:1]

T1: human amylin receptor (amylin 3(a) receptor: human calcitonin receptor with RAMP-3) (human, UniProt P30988 25-474; O60896 24-148)
T1 construct: whole, on cells; also called hAmylin-R; hAmylinR
T1 sequence (looked up) 1: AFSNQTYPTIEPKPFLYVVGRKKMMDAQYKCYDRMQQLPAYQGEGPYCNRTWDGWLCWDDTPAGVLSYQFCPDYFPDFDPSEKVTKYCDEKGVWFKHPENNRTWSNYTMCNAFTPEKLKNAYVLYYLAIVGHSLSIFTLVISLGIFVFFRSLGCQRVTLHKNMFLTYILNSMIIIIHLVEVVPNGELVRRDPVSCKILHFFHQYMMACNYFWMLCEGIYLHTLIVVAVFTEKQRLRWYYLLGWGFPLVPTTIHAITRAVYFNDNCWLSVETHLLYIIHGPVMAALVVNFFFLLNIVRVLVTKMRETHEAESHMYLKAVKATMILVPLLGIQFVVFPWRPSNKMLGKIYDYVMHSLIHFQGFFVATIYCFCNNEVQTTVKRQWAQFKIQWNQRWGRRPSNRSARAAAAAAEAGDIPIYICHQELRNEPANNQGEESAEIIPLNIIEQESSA
T1 sequence (looked up) 2: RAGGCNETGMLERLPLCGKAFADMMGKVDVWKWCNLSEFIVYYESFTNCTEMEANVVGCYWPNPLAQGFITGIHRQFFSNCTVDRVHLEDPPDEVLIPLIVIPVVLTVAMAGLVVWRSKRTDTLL


Molecular target: T1, human amylin receptor (amylin 3(a) …)
Assay: SPA displacement of 125I-rat amylin, hAmylin 3(a) receptor membranes
Procedure: The binding assay was performed using scintillation proximity assay (SPA) beads (RPNQ0001) from PerkinElmer and cell membranes from the Amylin 3(a)/CRE-luc cells (as described in Assay (II)) were used. Membranes were prepared in the following way; the cells were rinsed with PBS and incubated with Versene for approximately 5 min before harvesting. The cells were flushed with PBS and the cell-suspension was centrifuged for 5 min at 1000 rpm. Cells were homogenized (ultrathurrax) in a buffer containing 20 mM Na-HEPES and 10 mM EDTA (pH 7.4) and centrifuged at 20.000 rpm for 15 min. The resulting pellet was resuspended, homogenized and centrifuged (20.000 rpm, 15 min) in a buffer containing 20 mM Na-HEPES and 0.1 mM EDTA (pH 7.4, buffer 2). The resulting pellet was resuspended in buffer 2 and protein concentration was measured (BCA protein Assay, Pierce). The homogenate was kept cold during the whole procedure. The membranes were kept at −80° C. until use. The assay was performed in a 384 well Optiplate (PerkinElmer) in a total volume of 40 ul. Membranes were mixed with SPA beads. Final concentration of membranes 35 ng/μL final and SPA beads was 0.05 mg/well. Test-compounds were dissolved in DMSO and further diluted in assay buffer (50 mM Hepes, pH 7.4, 1 mM CaCl2, 5 mM MgCl₂, 0.1% OA and 0.02% Tween20). […] The final mixture was incubated with shaking at 400 rpm for 120 min at 25° C. prior to centrifugation (1500 rpm, 10 min). Samples were analyzed on TopCounter™ (Packard). The IC₅₀ was calculated using (one site binding competition analysis) GraphPad Prism5 as a measure of receptor affinity.

| IC50 [nM] | Binder |
| --- | --- |
| 0.61 | {C20 diacid-γGlu}-KCNTATCATQRLANFLRHSSPNFGAIPSSTPVGSETY-NH2 (disulfide 2-7; SMILES CC[C@H](C)[C@H](NC(=O)[C@H](C)NC(=O)CNC(=O)[C@H](Cc1ccccc1)NC(=O)[C@H](CC(N)=O)NC(=O)[C@@H]1CCCN1C(=O)[C@H](CO)NC(=O)[C@H](CO)NC(=O)[C@H](Cc1c[nH]cn1)NC(=O)[C@H](CCCNC(=N)N)NC(=O)[C@H](CC(C)C)NC(=O)[C@H](Cc1ccccc1)NC(=O)[C@H](CC(N)=O)NC(=O)[C@H](C)NC(=O)[C@H](CC(C)C)NC(=O)[C@H](CCCNC(=N)N)NC(=O)[C@H](CCC(N)=O)NC(=O)[C@@H](NC(=O)[C@H](C)NC(=O)[C@@H]1CSSC[C@H](NC(=O)[C@H](CCCCN)NC(=O)CC[C@H](NC(=O)CCCCCCCCCCCCCCCCCCC(=O)O)C(=O)O)C(=O)N[C@@H](CC(N)=O)C(=O)N[C@@H]([C@@H](C)O)C(=O)N[C@@H](C)C(=O)N[C@@H]([C@@H](C)O)C(=O)N1)[C@@H](C)O)C(=O)N1CCC[C@H]1C(=O)N[C@@H](CO)C(=O)N[C@@H](CO)C(=O)N[C@H](C(=O)N1CCC[C@H]1C(=O)N[C@H](C(=O)NCC(=O)N[C@@H](CO)C(=O)N[C@@H](CCC(=O)O)C(=O)N[C@H](C(=O)N[C@@H](Cc1ccc(O)cc1)C(N)=O)[C@@H](C)O)C(C)C)[C@@H](C)O, also called 28; compound 28) |
| 0.082 | {C20 diacid-γGlu}-KCNTATCATQRLADFLRHSSPNFGAIPSSTNVGSNTP-NH2 (disulfide 2-7; SMILES CC[C@H](C)[C@H](NC(=O)[C@H](C)NC(=O)CNC(=O)[C@H](Cc1ccccc1)NC(=O)[C@H](CC(N)=O)NC(=O)[C@@H]1CCCN1C(=O)[C@H](CO)NC(=O)[C@H](CO)NC(=O)[C@H](Cc1c[nH]cn1)NC(=O)[C@H](CCCNC(=N)N)NC(=O)[C@H](CC(C)C)NC(=O)[C@H](Cc1ccccc1)NC(=O)[C@H](CC(=O)O)NC(=O)[C@H](C)NC(=O)[C@H](CC(C)C)NC(=O)[C@H](CCCNC(=N)N)NC(=O)[C@H](CCC(N)=O)NC(=O)[C@@H](NC(=O)[C@H](C)NC(=O)[C@@H]1CSSC[C@H](NC(=O)[C@H](CCCCN)NC(=O)CC[C@H](NC(=O)CCCCCCCCCCCCCCCCCCC(=O)O)C(=O)O)C(=O)N[C@@H](CC(N)=O)C(=O)N[C@@H]([C@@H](C)O)C(=O)N[C@@H](C)C(=O)N[C@@H]([C@@H](C)O)C(=O)N1)[C@@H](C)O)C(=O)N1CCC[C@H]1C(=O)N[C@@H](CO)C(=O)N[C@@H](CO)C(=O)N[C@H](C(=O)N[C@@H](CC(N)=O)C(=O)N[C@H](C(=O)NCC(=O)N[C@@H](CO)C(=O)N[C@@H](CC(N)=O)C(=O)N[C@H](C(=O)N1CCC[C@H]1C(N)=O)[C@@H](C)O)C(C)C)[C@@H](C)O, also called 10; compound 10) |
| 0.321 | {C20 diacid-γGlu}-KCNTATCATQRLAEFLRHSSPNFGPILPPTNVGSNTP-NH2 (disulfide 2-7; SMILES CC[C@H](C)[C@H](NC(=O)[C@@H]1CCCN1C(=O)CNC(=O)[C@H](Cc1ccccc1)NC(=O)[C@H](CC(N)=O)NC(=O)[C@@H]1CCCN1C(=O)[C@H](CO)NC(=O)[C@H](CO)NC(=O)[C@H](Cc1c[nH]cn1)NC(=O)[C@H](CCCNC(=N)N)NC(=O)[C@H](CC(C)C)NC(=O)[C@H](Cc1ccccc1)NC(=O)[C@H](CCC(=O)O)NC(=O)[C@H](C)NC(=O)[C@H](CC(C)C)NC(=O)[C@H](CCCNC(=N)N)NC(=O)[C@H](CCC(N)=O)NC(=O)[C@@H](NC(=O)[C@H](C)NC(=O)[C@@H]1CSSC[C@H](NC(=O)[C@H](CCCCN)NC(=O)CC[C@H](NC(=O)CCCCCCCCCCCCCCCCCCC(=O)O)C(=O)O)C(=O)N[C@@H](CC(N)=O)C(=O)N[C@@H]([C@@H](C)O)C(=O)N[C@@H](C)C(=O)N[C@@H]([C@@H](C)O)C(=O)N1)[C@@H](C)O)C(=O)N[C@@H](CC(C)C)C(=O)N1CCC[C@H]1C(=O)N1CCC[C@H]1C(=O)N[C@H](C(=O)N[C@@H](CC(N)=O)C(=O)N[C@H](C(=O)NCC(=O)N[C@@H](CO)C(=O)N[C@@H](CC(N)=O)C(=O)N[C@H](C(=O)N1CCC[C@H]1C(N)=O)[C@@H](C)O)C(C)C)[C@@H](C)O, also called compound 4) |
| 0.374 | {C20 diacid-γGlu}-KCNTATCATQRLAEFLRHSSPNFGAPLSSTNVGSNTP-NH2 (disulfide 2-7; SMILES CC(C)C[C@H](NC(=O)[C@H](CCCNC(=N)N)NC(=O)[C@H](CCC(N)=O)NC(=O)[C@@H](NC(=O)[C@H](C)NC(=O)[C@@H]1CSSC[C@H](NC(=O)[C@H](CCCCN)NC(=O)CC[C@H](NC(=O)CCCCCCCCCCCCCCCCCCC(=O)O)C(=O)O)C(=O)N[C@@H](CC(N)=O)C(=O)N[C@@H]([C@@H](C)O)C(=O)N[C@@H](C)C(=O)N[C@@H]([C@@H](C)O)C(=O)N1)[C@@H](C)O)C(=O)N[C@@H](C)C(=O)N[C@@H](CCC(=O)O)C(=O)N[C@@H](Cc1ccccc1)C(=O)N[C@@H](CC(C)C)C(=O)N[C@@H](CCCNC(=N)N)C(=O)N[C@@H](Cc1c[nH]cn1)C(=O)N[C@@H](CO)C(=O)N[C@@H](CO)C(=O)N1CCC[C@H]1C(=O)N[C@@H](CC(N)=O)C(=O)N[C@@H](Cc1ccccc1)C(=O)NCC(=O)N[C@@H](C)C(=O)N1CCC[C@H]1C(=O)N[C@@H](CC(C)C)C(=O)N[C@@H](CO)C(=O)N[C@@H](CO)C(=O)N[C@H](C(=O)N[C@@H](CC(N)=O)C(=O)N[C@H](C(=O)NCC(=O)N[C@@H](CO)C(=O)N[C@@H](CC(N)=O)C(=O)N[C@H](C(=O)N1CCC[C@H]1C(N)=O)[C@@H](C)O)C(C)C)[C@@H](C)O, also called compound 5) |
| 0.674 | {C20 diacid-γGlu}-KCNTATCATQRLAEFLRHSSPNFGAPLSSTNVGSNTY-NH2 (disulfide 2-7; SMILES CC(C)C[C@H](NC(=O)[C@H](CCCNC(=N)N)NC(=O)[C@H](CCC(N)=O)NC(=O)[C@@H](NC(=O)[C@H](C)NC(=O)[C@@H]1CSSC[C@H](NC(=O)[C@H](CCCCN)NC(=O)CC[C@H](NC(=O)CCCCCCCCCCCCCCCCCCC(=O)O)C(=O)O)C(=O)N[C@@H](CC(N)=O)C(=O)N[C@@H]([C@@H](C)O)C(=O)N[C@@H](C)C(=O)N[C@@H]([C@@H](C)O)C(=O)N1)[C@@H](C)O)C(=O)N[C@@H](C)C(=O)N[C@@H](CCC(=O)O)C(=O)N[C@@H](Cc1ccccc1)C(=O)N[C@@H](CC(C)C)C(=O)N[C@@H](CCCNC(=N)N)C(=O)N[C@@H](Cc1c[nH]cn1)C(=O)N[C@@H](CO)C(=O)N[C@@H](CO)C(=O)N1CCC[C@H]1C(=O)N[C@@H](CC(N)=O)C(=O)N[C@@H](Cc1ccccc1)C(=O)NCC(=O)N[C@@H](C)C(=O)N1CCC[C@H]1C(=O)N[C@@H](CC(C)C)C(=O)N[C@@H](CO)C(=O)N[C@@H](CO)C(=O)N[C@H](C(=O)N[C@@H](CC(N)=O)C(=O)N[C@H](C(=O)NCC(=O)N[C@@H](CO)C(=O)N[C@@H](CC(N)=O)C(=O)N[C@H](C(=O)N[C@@H](Cc1ccc(O)cc1)C(N)=O)[C@@H](C)O)C(C)C)[C@@H](C)O, also called compound 7) [N^α1-[(4S)-4-carboxy-4-(19-carboxynonadecanoylamino)butanoyl]-[Glu14,Arg17,Pro21,Pro26]-h-amylin] |
| 0.996 | {C20 diacid-γGlu}-KCNTATCATQRLAEFLRHSSPNFGPILPPTNVGSNTY-NH2 (disulfide 2-7; SMILES CC[C@H](C)[C@H](NC(=O)[C@@H]1CCCN1C(=O)CNC(=O)[C@H](Cc1ccccc1)NC(=O)[C@H](CC(N)=O)NC(=O)[C@@H]1CCCN1C(=O)[C@H](CO)NC(=O)[C@H](CO)NC(=O)[C@H](Cc1c[nH]cn1)NC(=O)[C@H](CCCNC(=N)N)NC(=O)[C@H](CC(C)C)NC(=O)[C@H](Cc1ccccc1)NC(=O)[C@H](CCC(=O)O)NC(=O)[C@H](C)NC(=O)[C@H](CC(C)C)NC(=O)[C@H](CCCNC(=N)N)NC(=O)[C@H](CCC(N)=O)NC(=O)[C@@H](NC(=O)[C@H](C)NC(=O)[C@@H]1CSSC[C@H](NC(=O)[C@H](CCCCN)NC(=O)CC[C@H](NC(=O)CCCCCCCCCCCCCCCCCCC(=O)O)C(=O)O)C(=O)N[C@@H](CC(N)=O)C(=O)N[C@@H]([C@@H](C)O)C(=O)N[C@@H](C)C(=O)N[C@@H]([C@@H](C)O)C(=O)N1)[C@@H](C)O)C(=O)N[C@@H](CC(C)C)C(=O)N1CCC[C@H]1C(=O)N1CCC[C@H]1C(=O)N[C@H](C(=O)N[C@@H](CC(N)=O)C(=O)N[C@H](C(=O)NCC(=O)N[C@@H](CO)C(=O)N[C@@H](CC(N)=O)C(=O)N[C@H](C(=O)N[C@@H](Cc1ccc(O)cc1)C(N)=O)[C@@H](C)O)C(C)C)[C@@H](C)O, also called compound 6) |
